Test results: paper PMC2248732

Assays:
Hfq65 (Escherichia coli) = Hfq65 (Escherichia coli) (UniProt P0A6X3); experiment: EMSA
Hfqwt (Escherichia coli) = Hfqwt (Escherichia coli) (UniProt P0A6X3); experiment: EMSA
Hfqwt (Escherichia coli), sequence (P0A6X3 whole entry): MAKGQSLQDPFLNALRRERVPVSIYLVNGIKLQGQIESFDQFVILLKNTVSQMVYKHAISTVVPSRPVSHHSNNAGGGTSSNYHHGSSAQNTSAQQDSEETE

Hfq65 (Escherichia coli), sequence (P0A6X3 1-65): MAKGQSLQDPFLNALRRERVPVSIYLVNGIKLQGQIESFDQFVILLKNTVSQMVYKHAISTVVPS

## RyhB
Hfq65 (Escherichia coli)
  Kd: 35 nM
Hfqwt (Escherichia coli)
  Kd: 16 nM
